Measurements published in patent publication US7183387 (Genentech, dated 2007).

What was measured:
Experiment in all cases: ELISA, IgG:IgE hexamers on receptor-GST
[1] = molecular target: T1, human FcγRIIB α subunit extracellular domain-6His-GST fusion (human, UniProt P31994 43-217)
T1 construct: not shown: glutathione S-transferase (GST)
T1 sequence: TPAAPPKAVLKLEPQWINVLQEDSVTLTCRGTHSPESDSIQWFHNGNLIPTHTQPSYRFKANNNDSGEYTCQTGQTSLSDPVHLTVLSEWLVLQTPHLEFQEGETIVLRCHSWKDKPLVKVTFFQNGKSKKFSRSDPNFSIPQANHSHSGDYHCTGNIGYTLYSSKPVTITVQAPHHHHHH

[2] = molecular target: T2, human FcγRIIIA-F158 α subunit extracellular domain-6His-GST fusion (human, UniProt P08637 17-208)
T2 construct: also called FcγRIIIA-Phe158; not shown: glutathione S-transferase (GST)

[3] = molecular target: T3, human FcγRIIA-R131 α subunit extracellular domain-6His-GST fusion (human, UniProt P12318 34-217)
T3 construct: also called FcγRIIA-Arg131; not shown: glutathione S-transferase (GST)
T3 sequence: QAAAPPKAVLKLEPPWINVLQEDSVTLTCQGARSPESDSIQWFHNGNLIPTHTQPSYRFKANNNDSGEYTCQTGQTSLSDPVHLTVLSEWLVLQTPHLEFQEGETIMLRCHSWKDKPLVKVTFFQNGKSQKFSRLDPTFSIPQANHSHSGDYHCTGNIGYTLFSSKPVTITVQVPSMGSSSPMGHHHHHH

T2 sequence (P08637 other isoform, or with tags, fused parts or gaps, form in doubt): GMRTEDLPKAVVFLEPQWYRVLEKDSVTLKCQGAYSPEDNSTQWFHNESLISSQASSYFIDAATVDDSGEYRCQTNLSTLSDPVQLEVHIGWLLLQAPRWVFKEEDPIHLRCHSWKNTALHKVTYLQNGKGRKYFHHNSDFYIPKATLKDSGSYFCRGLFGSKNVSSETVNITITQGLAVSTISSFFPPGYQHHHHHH

B1: E27 IgG1 variant K334(353)G (antibody)
heavy: not shown
light: DIQLTQSPSSLSASVGDRVTITCRASKPVDGEGDSYLNWYQQKPGKAPKLLIYAASYLESGVPSRFSGSGSGTDFTLTISSLQPEDFATYYCQQSHEDPYTFGQGTKVEIKRTVAAPSVFIFPPSDEQLKSGTASVVCLLNNFYPREAKVQWKVDNALQSGNSQESVTEQDSKDSTYSLSSTLTLSKADYEKHKVYACEVTHQGLSSPVTKSFNRGEC
notes: also called IG2 179
- ratio to native IgG1 [1]: 0.6
- ratio to native IgG1 [2]: 0.88
- ratio to native IgG1 [3]: 0.76

B2: E27 IgG1 variant E294(311)D (antibody)
heavy: not shown
light: B1 light
notes: also called IG2 174
- ratio to native IgG1 [1]: 0.26
- ratio to native IgG1 [2]: 0.14
- ratio to native IgG1 [3]: 0.37

B3: E27 IgG1 variant D280(295)N (antibody)
heavy: not shown
light: B1 light
notes: also called IG2 79
- ratio to native IgG1 [1]: 1.22
- ratio to native IgG1 [2]: 1.16
- ratio to native IgG1 [3]: 1.07

B4: E27 IgG1 variant E293(310)Q (antibody)
heavy: not shown
light: B1 light
- ratio to native IgG1 [1]: 0.77
- ratio to native IgG1 [2]: 0.99
- ratio to native IgG1 [3]: 0.85

B5: E27 IgG1 variant E318(337)K (antibody)
heavy: not shown
light: B1 light
- ratio to native IgG1 [1]: 1.08
- ratio to native IgG1 [2]: 0.72
- ratio to native IgG1 [3]: 1.03

B6: E27 IgG1 variant A330(349)K (antibody)
heavy: not shown
light: B1 light
notes: also called IG2 197
- ratio to native IgG1 [1]: 1.25
- ratio to native IgG1 [2]: 1.28
- ratio to native IgG1 [3]: 1.28

B7: E27 IgG1 variant A327(346)S (antibody)
heavy: not shown
light: B1 light
- ratio to native IgG1 [1]: 0.22
- ratio to native IgG1 [2]: 0.06
- ratio to native IgG1 [3]: 0.23

B8: E27 IgG1 variant A327(346)G (antibody)
heavy: not shown
light: B1 light
- ratio to native IgG1 [1]: 0.83
- ratio to native IgG1 [2]: 0.36
- ratio to native IgG1 [3]: 0.92

B9: E27 IgG1 variant E293(310)K (antibody)
heavy: not shown
light: B1 light
- ratio to native IgG1 [1]: 1.31
- ratio to native IgG1 [2]: 0.72
- ratio to native IgG1 [3]: 1.13

B10: E27 IgG1 variant E283(300)N (antibody)
heavy: not shown
light: B1 light
notes: also called IG2 228
- ratio to native IgG1 [1]: 1.28
- ratio to native IgG1 [2]: 0.94
- ratio to native IgG1 [3]: 1.18

B11: E27 IgG1 variant D265(278)E (antibody)
heavy: not shown
light: B1 light
notes: also called IG2 158
- ratio to native IgG1 [1]: 0.03
- ratio to native IgG1 [2]: 0.02
- ratio to native IgG1 [3]: 0.11

B12: E27 IgG1 variant D270(283)N (antibody)
heavy: not shown
light: B1 light
notes: also called IG2 92
- ratio to native IgG1 [1]: 0.05
- ratio to native IgG1 [2]: 0.04
- ratio to native IgG1 [3]: 0.03

B13: E27 IgG1 variant E269(282)D (antibody)
heavy: not shown
light: B1 light
- ratio to native IgG1 [1]: 0.73
- ratio to native IgG1 [2]: 1.13
- ratio to native IgG1 [3]: 0.89

B14: E27 IgG1 variant E333(352)N (antibody)
heavy: not shown
light: B1 light
- ratio to native IgG1 [1]: 0.52
- ratio to native IgG1 [2]: 0.56
- ratio to native IgG1 [3]: 0.59

B15: E27 IgG1 variant D280(295)S (antibody)
heavy: not shown
light: B1 light
- ratio to native IgG1 [1]: 1.04
- ratio to native IgG1 [2]: 1.09
- ratio to native IgG1 [3]: 1.07

B16: E27 IgG1 variant A330(349)D (antibody)
heavy: not shown
light: B1 light
- ratio to native IgG1 [1]: 0.08
- ratio to native IgG1 [2]: 0.07
- ratio to native IgG1 [3]: 0.18

B17: E27 IgG1 variant E333(352)S (antibody)
heavy: not shown
light: B1 light
notes: also called IG2 143
- ratio to native IgG1 [2]: 0.94

B18: E27 IgG1 variant E294(311)Q (antibody)
heavy: not shown
light: B1 light
notes: also called IG2 173
- ratio to native IgG1 [1]: 0.95
- ratio to native IgG1 [2]: 0.84
- ratio to native IgG1 [3]: 1.01

B19: E27 IgG1 variant E333(352)D (antibody)
heavy: not shown
light: B1 light
- ratio to native IgG1 [2]: 1.26

B20: E27 IgG1 variant D270(283)E (antibody)
heavy: not shown
light: B1 light
notes: also called IG2 93
- ratio to native IgG1 [1]: 0.06
- ratio to native IgG1 [2]: 0.9
- ratio to native IgG1 [3]: 0.08

B21: E27 IgG1 variant E272(285)N (antibody)
heavy: not shown
light: B1 light
notes: also called IG2 224
- ratio to native IgG1 [1]: 0.23
- ratio to native IgG1 [2]: 0.5
- ratio to native IgG1 [3]: 0.43

B22: E27 IgG1 variant E283(300)D (antibody)
heavy: not shown
light: B1 light
- ratio to native IgG1 [1]: 1.23
- ratio to native IgG1 [2]: 0.95
- ratio to native IgG1 [3]: 1.14

B23: E27 IgG1 variant E333(352)K (antibody)
heavy: not shown
light: B1 light
- ratio to native IgG1 [2]: 0.85

B24: E27 IgG1 variant E269(282)Q (antibody)
heavy: not shown
light: B1 light
notes: also called IG2 169
- ratio to native IgG1 [1]: 0.16
- ratio to native IgG1 [2]: 0.28
- ratio to native IgG1 [3]: 0.08

B25: E27 IgG1 variant E283(300)Q (antibody)
heavy: not shown
light: B1 light
notes: also called IG2 226
- ratio to native IgG1 [1]: 1.24
- ratio to native IgG1 [2]: 1.19
- ratio to native IgG1 [3]: 1.12

B26: E27 IgG1 variant S267(280)T (antibody)
heavy: not shown
light: B1 light
- ratio to native IgG1 [1]: 0.45
- ratio to native IgG1 [3]: 0.42

B27: E27 IgG1 variant E283(300)S (antibody)
heavy: not shown
light: B1 light
notes: also called IG2 227
- ratio to native IgG1 [1]: 1.07
- ratio to native IgG1 [2]: 0.85
- ratio to native IgG1 [3]: 1.03

B28: E27 IgG1 variant E333(352)R (antibody)
heavy: not shown
light: B1 light
- ratio to native IgG1 [1]: 0.66
- ratio to native IgG1 [2]: 0.84
- ratio to native IgG1 [3]: 0.75

B29: E27 IgG1 variant E333(352)Q (antibody)
heavy: not shown
light: B1 light
- ratio to native IgG1 [1]: 0.64
- ratio to native IgG1 [2]: 1.05
- ratio to native IgG1 [3]: 0.7

B30: E27 IgG1 variant D249(262)E (antibody)
heavy: not shown
light: B1 light
notes: also called IG2 222
- ratio to native IgG1 [1]: 0.99
- ratio to native IgG1 [2]: 0.84
- ratio to native IgG1 [3]: 0.97

B31: E27 IgG1 variant D265(278)N (antibody)
heavy: not shown
light: B1 light
- ratio to native IgG1 [1]: 0.03
- ratio to native IgG1 [2]: 0.02
- ratio to native IgG1 [3]: 0.02

B32: E27 IgG1 variant E293(310)D (antibody)
heavy: not shown
light: B1 light
- ratio to native IgG1 [1]: 0.88
- ratio to native IgG1 [2]: 0.37
- ratio to native IgG1 [3]: 0.9

B33: E27 IgG1 variant E272(285)Q (antibody)
heavy: not shown
light: B1 light
notes: also called IG2 223
- ratio to native IgG1 [1]: 1.81
- ratio to native IgG1 [2]: 0.82
- ratio to native IgG1 [3]: 1.93

B34: E27 IgG1 variant E333(352)G (antibody)
heavy: not shown
light: B1 light
notes: also called IG2 178
- ratio to native IgG1 [1]: 0.76
- ratio to native IgG1 [2]: 1.05
- ratio to native IgG1 [3]: 0.87
